In patent US20250263466A1 (VIR BIOTECHNOLOGY, published 2025):

Assays:
[1] = molecular target: SARS-CoV S protein (Urbani strain) expressed on ExpiCHO cells (SARS-CoV, UniProt P59594 14-1255); test: flow cytometry on ExpiCHO cells transfected with SARS-CoV S
[2] = molecular target: T1, MERS-CoV S protein (London1/2012) expressed on ExpiCHO cells (MERS-CoV, UniProt K9N5Q8 18-1353); test: flow cytometry on ExpiCHO cells transfected with MERS-CoV S
T1 sequence: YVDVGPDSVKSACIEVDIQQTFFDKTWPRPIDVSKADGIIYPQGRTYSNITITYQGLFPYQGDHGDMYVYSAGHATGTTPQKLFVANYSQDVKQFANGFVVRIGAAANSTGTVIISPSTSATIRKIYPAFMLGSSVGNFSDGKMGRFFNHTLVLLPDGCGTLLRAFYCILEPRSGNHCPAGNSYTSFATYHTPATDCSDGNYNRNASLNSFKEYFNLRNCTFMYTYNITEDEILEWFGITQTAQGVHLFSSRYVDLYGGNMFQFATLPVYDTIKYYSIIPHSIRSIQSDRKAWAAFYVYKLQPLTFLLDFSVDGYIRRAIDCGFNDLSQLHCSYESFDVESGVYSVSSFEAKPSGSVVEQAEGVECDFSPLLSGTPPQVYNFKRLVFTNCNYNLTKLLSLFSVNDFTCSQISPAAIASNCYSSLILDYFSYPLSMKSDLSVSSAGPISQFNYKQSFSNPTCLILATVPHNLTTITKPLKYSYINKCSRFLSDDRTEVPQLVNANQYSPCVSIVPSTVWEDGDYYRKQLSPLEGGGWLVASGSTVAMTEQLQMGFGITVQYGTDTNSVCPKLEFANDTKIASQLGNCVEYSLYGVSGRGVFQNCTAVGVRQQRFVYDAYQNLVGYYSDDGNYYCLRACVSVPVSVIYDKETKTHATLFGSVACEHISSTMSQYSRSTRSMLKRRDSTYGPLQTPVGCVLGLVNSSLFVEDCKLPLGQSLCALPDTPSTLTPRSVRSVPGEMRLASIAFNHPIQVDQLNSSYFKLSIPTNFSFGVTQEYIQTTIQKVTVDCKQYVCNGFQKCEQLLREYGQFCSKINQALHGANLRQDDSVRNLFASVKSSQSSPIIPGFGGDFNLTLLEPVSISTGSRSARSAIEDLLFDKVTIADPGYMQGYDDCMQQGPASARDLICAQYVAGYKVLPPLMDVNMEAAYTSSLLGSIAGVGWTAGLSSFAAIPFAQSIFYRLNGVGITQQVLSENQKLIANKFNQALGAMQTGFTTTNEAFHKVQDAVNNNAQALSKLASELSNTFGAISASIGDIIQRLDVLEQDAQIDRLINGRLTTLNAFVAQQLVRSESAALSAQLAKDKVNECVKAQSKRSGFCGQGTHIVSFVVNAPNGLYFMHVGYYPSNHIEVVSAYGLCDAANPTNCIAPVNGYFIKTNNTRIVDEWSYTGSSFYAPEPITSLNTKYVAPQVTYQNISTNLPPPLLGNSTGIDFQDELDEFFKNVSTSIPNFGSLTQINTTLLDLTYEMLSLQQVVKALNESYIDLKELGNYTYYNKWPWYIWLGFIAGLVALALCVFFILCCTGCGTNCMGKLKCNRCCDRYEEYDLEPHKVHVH

B1: nCoV-13 mAb (antibody, V domains shown)
VH: EVQLVESGGGLVKPGGSLRLSCAASGFTFSNYNMNWVRQAPGKGLEWVSSIGSSSTYIYSADSVKGRFTISRDNAMNSLFLQMKSLRAEDTAVYYCARGFERYYFDSWGQGTLVTVSS
VL: QSVLTQPPSASGTPGQRVTISCSGSTSNIGTNVVNWYQQLPGTAPKLLIYSNNQRPSWVPDRFSGSKSGTSASLAISGLQSEDEADYYCVAWDDILNAVVFAGGTKLTVL
B1: binds [1]; no binding (tested: 7 µg/ml) [2].

B2: nCoV-18 mAb (antibody, V domains shown)
VH: QVQLVQSGAEVRQPGTSVKVSCKASGYTFMNNDITWVRQAPGQVLQWMGWIRPSNGNTNYAQKFQGRVTLTTDTSTNTAHMELRSLKSDDTAVYYCARQSHSTRGGWHFSPWGQGTLVTVSS
VL: DIQMTQSPSSLSASVGDRVTITCRPSQPISYFLNWYQQTPGKAPKLLIYAASSLQSGVPSRFSGSGSGTDFTLTISSLQPEDSATYYCQQSYSVPYTFGQGTKLEIK
B2: binds [1]; no binding (tested: 10 µg/ml) [2].

B3: nCoV-7 mAb (antibody, V domains shown)
VH: QEQVVESGGGVVQPGKSLRLSCAASGFSLNDFAIHWVRQAPGKRLEWVAIISYDGRVKFYADSVKGRFTISRDSSVHLQMDSLRPEDTGLYYCARDSSWQSTGWPINWFDRWGRGTLVTVSS
VL: EIVLTQSPATLSLSPGQRATLSCRASQSVLSSLAWYQHKPGQAPRLLIYDASSRATGVPARFSGSGSETDFTLTISSLEPEDFAVYYCQQRSNWPPTFGQGTKVEIK
B3: binds [1]; no binding (tested: 2 µg/ml) [2].

B4: nCoV-15 mAb (antibody, V domains shown)
VH: EVQLVESGGGLVTPGRSLRLSCTASGFTFGDYALSWFRQAPGKGLEWVAFIRSKAYGGTTEYAASVKGRFTISRDDSQIIVYLQMDSLKTEDTAVYYCSWIHRIVSWGQGTLVTVSS
VL: DIQMTQSPSSLSASEGDRVTITCQASQDISIYLNWFQQKPGKAPKLLIYEASNLKTGVPSRFSGSGSGTDFTFTISSLQPEDIATYYCQQYDNLPYTFGQGTKLEIK
B4: binds [1]; no binding (tested: 0.8 µg/ml) [2].

B5: nCoV-6 mAb (antibody, V domains shown)
VH: QVTLKESGPVLVKPTETLTLTCTVSVFSLSNARMGVSWIRQPPGKALEWLAHIFSSDQKSYSTSLKSRLTISKDTSKSQVVLTMTNMDPEDTGTYYCARINTAAYDYDSTTFDIWGQGTMVTVSS
VL: DIQMTQSPSSLSASVGDRVTITCRASQTISNYLNWYQQKPGKAPKLLLYAASSLQSGVPSRFSGSGSGTDFTLTISSLQLEDFATYYCQQSYSTPPTFGGGTKVEIK
B5: binds [1]; no binding (tested: 10 µg/ml) [2].

B6: nCoV-8 mAb (antibody, V domains shown)
VH: EVLLVESGGGLVQPGRSLRLSCVVSGFTFDYYAMHWVRQAPGKGLEWVSGISWNSDNTDYADSVKGRFTISRDNAKNSLYLQMNSLKTEDTALYYCAKDISLVFWSVNPPRNGMDVWGQGTTVTVSS
VL: DIQMTQSPSSLSASVGDRVTITCRASQSIRSYLNWYQQKPGKAPNLLIYTASSLQSGVPSRFSGSGSGTDFTLTISSLQPEDFATYYCQQSYSSPLTFGGGTKVEIK
B6: binds [1]; no binding (tested: 1.5 µg/ml) [2].

B7: nCoV-16 mAb (antibody, V domains shown)
VH: QVQLVESGGGVVQPGRSLRLSCAASGFTFSSYGMHWVRQAPGKGLEWVAFISYDGSNIQYADSVQGRFTISRDNSKTTLYLQMNSLRVEDTAMYYCAKDLFGYCRSTSCESLDDWGQGALVTVSS
VL: DIQLTQSPSFLSASVGDRVTITCRASQGISSYLAWYQQKPGKAPKLLIYAASTLQSGVPSRFSGTGYGTEFTLTISSLQPEDFATYYCQQLNNYPLTFGGGTKVEIK
B7: binds [1]; no binding (tested: 10 µg/ml) [2].

B8: nCoV-11 mAb (antibody, V domains shown)
VH: LVQLVESGGGVVQPGRSLRLSCAGSGFTFSSYGMHWVRQTPGKGLEWVAVISFDGRNKFYADPVKGRFTISRDNSKNTVFLELDSLTTEDTAFYYCARDDNLDRHWPLRLGGYWGQGTLVTVSS
VL: EIVMTQSPLSLPVTLGQPASISCRSSQDLLYNDGGTDLNWFQQRPGQSPRRLIYRVSNRDSGVPDRFSGSGSGSDFTLKISRVEAEDVGIYYCMQGAHWPPTFGPGTKVEIK
B8: binds [1]; no binding (tested: 10 µg/ml) [2].

B9: nCoV-2 mAb (antibody, V domains shown)
VH: DVQLLESGGGLVQPGGSLRLSCAASGFSFSSYAMTWVRQAPGKGLEWVATMSASGDSTNDADSVKGRFTISRDNSKNTLFLQMNSLRPEDTAVYYCASPLRNYGDLLYWGQGTLVTVSS
VL: DIQMTQSPSTLSASVGDRVTITCRASQNIHRFLAWYQQKPGKAPKLLIYTASSLESGVPSRFSGSGFGTEFTLTISSLQPDDFATYYCQQYNSYSWTFGQGTKVEIK
B9: binds [1]; no binding (tested: 10 µg/ml) [2].

B10: nCoV-12 mAb (antibody, V domains shown)
VH: QVQLVESGGGVVQPGRSLRLSCAGSGFTFSSFGLHWVRQAPGKGLEWLALISDEGRIKYYANSVKGRFFISRDNSKNTLYLQMNSLRGEDTAVYYCARDVKGHIVVMTSLDYWGQGALVTVSS
VL: DVVMTQSPLSLPVTLGQPASISCRSSQSLVSSDGDTSLSWFQQRPGQSPRRLIYEVSNRDSGVPDRFSGSGSGTDFTLKISRVEAEDVGVYYCMQGTHWPPTFGQGTKVEIK
B10: binds [1]; no binding (tested: 0.8 µg/ml) [2].

B11: nCoV-17 mAb (antibody, V domains shown)
VH: QVQLVESGGGVVQPGRSLRLSCAASGFTFSSYAIHWVRQAPGKGLEWLAVISFDGRHKYYADSVKGRFTISRDNSKNTVYLQMNSLRVEDTAVYSCARDIRHLIVVVSDMDVWGQGTTVTVSS
VL: DVVMTQSPLSLPVTLGQPASISCRSSQSLVNSDGDTSLNWFQQRPGQSPRRLIYKVSNRDSGVPDRISGSGSGTDFTLKISRVEAEDVGVYYCMQGTHWPPTFGQGTKLEIK
B11: binds [1]; no binding (tested: 10 µg/ml) [2].

B12: nCoV-14 mAb (antibody, V domains shown)
VH: QVQLVHSGAEVKKPGASVRVSCKASGYTYTAYYIHWLRQAPGQGLEWMGWINADNGDTHSVQKFQGRVTMTRDTSINTAYLEVSRLKSDDTAVYYCARGDVPVGTGWVFDFWGQGTLVTVSS
VL: DIQMTQSPSSLSASVGDSVTISCRASQTINNFLNWYQQKPGKAPNLLIYGAYNLQSGVPSRFSGSGSGTDFTLTISSLQPEDVAIYYCQQSLSMVTFGQGTRLDIK
B12: binds [1]; no binding (tested: 10 µg/ml) [2].

B13: nCoV-3 mAb (antibody, V domains shown)
VH: EVQLLESGGGLVQPGGSLRLSCTASGFTFASYAMTWVRQAPGKGLEWVSTISGGGGDTYSADSVKGRFTISRDNSKSTLYLQMNSLRAADTALYYCARLESATQPLGYYFYGMDVWGQGTTVTVSS
VL: SYELTQPPSVSVSPGQTARITCSGDALPKQYAFWYQQRPGQAPVLVISKDSERPSGIPERFSGSSSGTTVTLTISGVQAEDEADYYCHSADISATSWVFGGGTKLTVV
B13: binds [1]; no binding (tested: 10 µg/ml) [2].

B14: nCoV-5 mAb (antibody, V domains shown)
VH: QMQLVQSGPEMKKPGTSVKVSCKASGFTFSKTTLQWVRQARGQRPEWIGWIVLGSGNTNYAHYFQARVTITRDMSTSTAYMELSSLSSEDTAVYYCAAEMATIQNYYYYYGMDVWGQGTTVTVSS
VL: DIQMTQSPSSLSASVGDRVTITCRASQSINYYLNWYQQKPGKAPNLLIYAASSLPGGVPSRFSGSGSGTDFTLTITSLQPEDFATYFCQQSYSTPPTFGQGTKLEIK
B14: binds [1]; no binding (tested: 1 µg/ml) [2].

B15: nCoV-9 mAb (antibody, V domains shown)
VH: QVLLVESGGGVVQPGMSLRLSCAASGFTFSSYAMHWVRQAPGKGLEWVAVISYDGSTKFYADSVRGRFPISRDNSKNTVYLQMNSLRPEDTAVYYCATVSVEGYTSGWYLGTLDFWGQGTPVTVSS
VL: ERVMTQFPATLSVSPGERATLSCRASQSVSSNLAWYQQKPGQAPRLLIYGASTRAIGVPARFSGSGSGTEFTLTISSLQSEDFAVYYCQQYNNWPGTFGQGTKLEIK
B15: binds [1]; no binding (tested: 8.5 µg/ml) [2].

B16: nCoV-4 mAb (antibody, V domains shown)
VH: QVQLVESGGGVVQPGRSLRLSCEASGFTLRTSSLHWVRQAPGKGLEWVAVISNDGATKFYADAVKGRFTISRDNSNNKIYLQLNGLKPEDTAVYYCARETRHYSHGLNWFDPWGQGTLVNVSS
VL: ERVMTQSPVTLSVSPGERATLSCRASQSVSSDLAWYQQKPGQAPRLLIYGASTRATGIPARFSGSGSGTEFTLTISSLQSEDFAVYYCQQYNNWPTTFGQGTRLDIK
B16: no binding (tested: 10 µg/ml) [2].
